{"source": "the NTF2 design screens of Basanta et al. (2020)"}
{"experiment": "protease stability score; higher = more stable; yeast display proteolysis, trypsin and chymotrypsin;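 note: log10 excess protease needed over predicted unfolded state with 0 meaning unfolded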"}
{"sequence": "DDKNRELLTEVLKARETGDPDRIHELLDPNVKVKVGNKTLRGRNEIAKWWKRQTDEMRIEESITHIDVHNGKARMEASARVEINGRPVTYTFIMKAVIHNGRVKEINIHIPEEKMQEVTQ", "protease stability score": 0.948}
{"sequence": "DDKQAKELVKLMHTGDWETLINNMDPNARVVIGNKTYHGRHDAQKLLELWQKRVDHQDIHDVKARGDQLQVNMVFVINGVKFELVITVKFHNGRIESVQYDVTDRDQERKLEDLMS", "protease stability score": 1.67}
{"sequence": "DDKQLDERVKEIQEVIRDNDPDSMKHLMDPNARMFVGDKEFHGRDEIVRHLKDLWHRVDHFHIKDFRASGNRAVVIAVFHVNGVTAHFKIFVVFQNGRIKQLRIKWRNEDEERRVRS", "protease stability score": 0.674}
{"sequence": "DDKQQMEEMLQKYQEALDTGDPEKLASLFDENAEVRIGDKVYRGHEDIKRAAKHLLDNVDHIEIRLRSLETRPGRIHARLQMNVRHNGKNTTKTLHVVARKQGDEFVVEHMEVE", "protease stability score": 2.07}
{"sequence": "DDKRKADEFAKELVKAVQTGDSDNIRKLLDPNARINVGEKHYQGKDSMAKIMVRIAEDVDHISARVISVRDHNGSAVIHIEVQNNHNGRNSRTRVILHLTDHNGRIKLRERREG", "protease stability score": 0.749}
{"sequence": "DDKTIKENLKVFNRGNPDDMKTLMDKDVRLEVGEKSVHGREQAQTWQDRYERQVDHRRVKSYSMNGNNVVADMVVQVNGREYEVRLEVHVHNGRIKVLRLEVRDEDDRRNLKRLLS", "protease stability score": 0.211}
{"sequence": "DDNEVETVRELIEQLETGDPDKFKEMVDKDVNINVGNKHVHGREEAVEQIRKEAREISFRIKVDRVEAHNGHVRVDFKFDAEVNGQPRSFRAIMVLEIEDGVVKHIELQMDRNQQQRLEK", "protease stability score": 1.1}
{"sequence": "DDNLNRKVKKFWKVLQKGNPHEAKKYFDPNAHIVIGDQRIHGMDKFNRRMEHMKSHIRVQIDTLRMQDNGSQVDVTFEAVFNHNGRPKRYRARVRFEVHNGKAKSLTLKEDQ", "protease stability score": 0.265}
{"sequence": "DDNLRKHVDNLIKLLQDGNPQELVNMADPNARVTIGDEQVHGREQLHEDWHRQAKEMRIQWDHYRVDAQGDKVRVNATRTLQTNGKPDSERFHVEMRLQGDKLQTERVDVHK", "protease stability score": -0.265}
{"sequence": "DDQAKRIVDEILTNMRTGDEDKLKTLIDPNARARVGEKEVHGWDDALKEIADKLRDIRIQIDRFSVKVTGDKVKIDFTAQNEHNGQPSTKKYERNYKIKNGRVKHFEDVSTQ", "protease stability score": -0.192}
{"sequence": "DDQALRLLEEWLKAVQEGDQERAHEMADPNAKFEVGDKTINGMDDVNEQIRRDTESMRYQVQNVHSITRPNHVQADVQFENEHNGNPDTNRMVIQARATNGRIQSLRIQDKK", "protease stability score": 0.058}
{"sequence": "DDQDIRHILDQWRTGDFDQVRNQADENANIVYGDKRYHGREQLQEWMKTLKEQIDHFHIRSITQKGDKARFEAEADVNGVDVKFSVVISVHNGRVKFFEFQWTSEELLERIKHEIG", "protease stability score": 0.942}
{"sequence": "DDQDLAKRLLDQLTKALQHGDERQLQRLMDKDVRVHIGDKNIHGREQAATFWVHLRKHVDRLSVRVKHVDIQGERVVFDMVFVFNHNGRQEHVRVVIVAKKDGDKIRIKRASQN", "protease stability score": 2.16}
{"sequence": "DDQDRSHAVRLMRTGNFKEWADQADKDVSMQVGDKEVRGREQVIKMLKRLQEAADHVQVKSIHTQGEKMKADVTININGDQIRVIIEVVVEGDKLKELRIQFTSEHDEKIMHEQLQ", "protease stability score": 1.14}
{"sequence": "DDQEDAEKAARRFNKIVNENNFDDLLNQFDPNARIQVGDKQYHGRSEISKFMQKWKRQIDHLEAHLKDVKVDNGRIDVKFKFQFHKNGTRVDRDMSLDARRQGDQINIQELHLG", "protease stability score": 0.198}
{"sequence": "DDQEERDWNERMKQVLRTGDEHRLEQLMDENVRMRVGDSVVTGREKVRQVFHELMKQADKIEVKSVSAQGNEVLIRFVLNHNGKNDDVVIEVRVHNGRIKEIVIRSK", "protease stability score": -0.001}
{"sequence": "DDQEIAEQAARDFDTAVQEGDEDQIVRMADPNVQLQIGDERYRGREDLRKWIKDIRRQVDHVDVRVRDLKVQGEHVRARIEVQYTENGKTRRYQFEMTNNIHNGRVRMTQVNEK", "protease stability score": 0.948}
{"sequence": "DDQELAEDAQRQFQEVLKTGDPKRANELMDEDARLEVGDTQLHGRERVAKHLSDLRKQADHIDVRVDTIRVHNGRVDADVRIRITKNGQNREFRARLYFTVQGDKVKMKRLQES", "protease stability score": 1.38}
{"sequence": "DDQERREIAKNFQRGNEQVVKKLVDPNARIRVGDKTLHGRDQMSHVFKRLQEQVDHIDVKHYTISGEHIVIDAIFVINGKNIRMVIVVQVENGRVKRVDFKYTNEEQKKQLERDLS", "protease stability score": 0.004}
{"sequence": "DDQEVKKLAHEVQKILEHGDPDQFADLFDKDARMTVGDKDLHGRERIRELAQRQQDRIDHVQLEEYQVHNGRVVLKMRVNVNGHDETINMTLHQRNGKVKEFTQQSR", "protease stability score": 0.071}
{"sequence": "DDQHHAERFVEHVLKQLQTGNENDISKMVDENARVEYGDEEITGRESVVKHLIKEARRVDSIDLKVKSVSKEGDKINVTLVAVLDVNGRKDKRQFRVVMAKQGDKTNIISQHEK", "protease stability score": 0.965}
{"sequence": "DDQHQQKFAEEFNKNLEKGDFHRIAQMADENVRVRYGDKSVNGREHMSQFMKELRDRVDHMEIKDFHASNGKITITFVVNVNGKNITLHISIRVSNGRIHEVSLDPDQLKSLES", "protease stability score": 2}
{"sequence": "DDQKARRLVERFIRALQHGDEDLARQLFDKNAKINIGDKTLTGREDVAKYVHHVHRHVDDVSVKSIQVDGDKAEVRVQFDINGKQHQMTFSAKYRNGRVQSATYKSQ", "protease stability score": 0.524}
{"sequence": "DDQKEIEKVLEVIKRMDTGDEKNVKEMFDPNARASVGERTYHGREDIQSFARELKERVDHVRIDSMSAHGDKATVDLRMNENGRTERYSVRVQIHNGRARHLRYTTK", "protease stability score": -0.219}
{"sequence": "DDQKKKELMQKMVEAYLSGHHEEVEKLGKDDGKVEAGDRKYEGSEQARKAAKQFKTYGVELRITDMQQDGDRLDVKAEAHMGGVTWEFTATVTADGGKVDKIQIDASDDAKKAIKDG", "protease stability score": 0.725}
{"sequence": "DDQKNLEKWVRDFQEVNKTGDPDRFRNLFPPNAEMTIGDKTIKGSETVREYMEHLVNRYDHLDVQVESIHAEGDKLTVKLRLVFNTNGKNDQYVNKVLLDDHNGRLKAHEVHQE", "protease stability score": 0.7}
{"sequence": "DDQKTANHLNKQFKDVWTSGDEHRLQELMDPNVRVDVGDKRYKGDEQVNKYFIDLLRNVDHVDFDVKDMKARGEKVLLVVDIRVDINGKRHRFNARQIFTVEGDQARVKVYHDG", "protease stability score": 0.653}
{"sequence": "DDQKVRVASELLKAIERGDPDQARELMDENAKMVIGETTFTGRDEAAKWISELKKHMRVQIQSVTFHDHNGQIVVNVTFEANINGDPFTMNLIVRVQVHNGRVQNVHYRLSEEQKRRLEQ", "protease stability score": 0.969}
{"sequence": "DDQLFRVLQELWKALQEGDHKHAIDQAPEDARFHVGEKNYHGMEDAAKHLAEFYKQIRVRIEIKRYEINGDSLNVHVVVQMNNNGKPERRRNVILAKLHNGRMLEMQVHDRE", "protease stability score": 0.064}
{"sequence": "DDQLRKKVKTFIRVIQSGNTQEAKKLMDPNARYHVGDKTVDGMDQWATIMTKLKDEMRIQLNVTSVTATNGHIHVRVEVNVDVNGRPINVTVNVYFHIENGRIQRVHYQMDPDEFKHIQR", "protease stability score": -0.135}
{"sequence": "DDQLSDQLDKARKQIEEGNFEQVREYVDPNVSVHVGDKSVHGREKYTHEILRKHQELRYKVEVTRVHVENGRLDVKAQETVNHNGRPESSRYVLDLNMHNGRLKHMTKSSDK", "protease stability score": -0.321}
{"sequence": "DDQNLRSAVRRLVDGNEERAKDTLDENARVEVGEYNFHGREEAQKAFQTMQDRIDHINVKSYKYQGDKASVDMVVEFNGRSVKFVVVVRVHNGHLVNARVQFTDEHQHKRAKEMID", "protease stability score": -0.104}
{"sequence": "DDQQARDIAKELVKALQTGDPERFVELADPNARVEIGDKTYHGHDRMSEMIKTWHRDVDHIRIQDYRAKGDKIEIQFVLDINGKQNRLVMVVQVSNGRITVVFVRSG", "protease stability score": 1.35}
{"sequence": "DDQQKAKTHVRQVRDAATSNDPDEMRRLADENARFVVGDKEYEGRDQVRELVERERDNVDQVEIRLTDVEKRGDRLRLEVRVVWNHNGSHDHKILDMIVQNHNGTLRFVQLQQR", "protease stability score": 0.366}
{"sequence": "DDQRLRELNDTIAENIQSGDESKLSQLADPNVRLQIGDKEWHGREEMQKAWDELRRSADHIEIRSITAKGDHAVINAVLHHNGRTSQVRFDFSFHNGRIVRVSMHET", "protease stability score": 1.48}
{"sequence": "DDQVAKMVRKLLRLEESGNEEELRKLADEEAEFVVGDKRYRGMTEYVQSVYHKKKEIRFKIITYSAEDDGDKIVVIIKMTNNHNGQPDTFRVKVVFVANNGNLKHANFRKRK", "protease stability score": 0.39}
{"sequence": "DDRDAERLVELWKTGDPDKFANHMRDDVRVQIGDKSVRGRDEAHKILERLRQQIDHWEIKDYEVHGERVIIHAVATVNGRHLNFVIVVQMHNGRIQSVQYKVTSEDDQHRIKKLLD", "protease stability score": 0.326}
{"sequence": "DDRDAKHFKEIMKHGNFEEMVRQADPNVTITIGDREVHGRHQAQKFVDTLNDRIDHYQVDEIDVKGEKITAEVAMVVNGVRVDFVIVMHFENGRIKSVRIEATNEHAHENFRRIHS", "protease stability score": 0.561}
{"sequence": "DDRDEAHKLHEDYDRVMQTGDDDRVREMVDPNAKLRIGDQDLRGREELAELMKRQRDRADHVRIELRSVKVDGNKITMKLNFHLDHNGRTENTDATYHYEKDNGQWELKHAKVS", "protease stability score": -0.052}
{"sequence": "DDRDEEKLQEQRKIHENNDEDRRKELVDPNVKFDVGDRHYHGRETNSKKFVDENREMRVEVDIKRVTNDEDHLRFEAHVVIRNNGQPDTKKVRLEQRLDGDKLKMERQEDKR", "protease stability score": 0.276}
{"sequence": "DDRDIERAKEMFKAIKTGDPDRLSELVDENARVKIGDKEWHGNTEWVEDLERKKKEMSVDLQIHKIEDRNGVAQIHMTRRMDHNGKPRSDKYVLFIRARNGRIVDVRAEERS", "protease stability score": 0.097}
{"sequence": "DDRDIERMAKDYVRAIRTGDEEQIRRLMDKDVKYEIGDKTIHGRENWAKWVKNFRRHADHVRLKDMRVHGNKIDLNMEFQVNGEKKRQKYDIQVHNGRIKTVRIEDS", "protease stability score": 1.47}
{"sequence": "DDRDIKQAADRFLEDIKTNNPENVRKLVDENARVQIGDKQYRGKERIQEAMEEWIKRVDHWRIEDIKIHGDQVHVKMRINVNGRNLTFIMVVSIKNGTLKTLTMNVTDTEKLREMLR", "protease stability score": 1.27}
{"sequence": "DDRDKVKSLWKQMLTILRTGDHKRWNKLVDKDVKYNIGDKSIHGKEEAEKLVKKIKDKVDTVSQTIVDVQNHNGRIHLRLRMVNNFNGNHNTYEVNAQFEKKNGRVKMQNQTDN", "protease stability score": 0.149}
{"sequence": "DDRDLEQLLRELVTIWKNGNFEDLSRQADPNVKFRVGDKTYHGREQASKLWKKLSDQADHWSVDSVQAKGDTLRLDFRATVNGHEVRMVYHARIQNGSITSWEIQYTSEELHTRVER", "protease stability score": 1.09}
{"sequence": "DDRDLETMVRLWRDNDSKRLKQNVDPNARIRYGNFEVHGREQVQKWIKLFRDRVDHNDIKRYQTTPGRLVMQLSATFNGVKVKFTMIVEFHNGNIRLIQINFTDEENMKHLVREVE", "protease stability score": 1.55}
{"sequence": "DDRDLKRMADVLKTGDPDKLNENADKDAQVHVGNKRVHGREQFHEYQRRLREQIDHLHVKHIEITENKARIDYEFHVNGQKFSFTLTFQAHDGKLKRMSATFTSEEEEKRWDEIVD", "protease stability score": 0.302}
{"sequence": "DDRDRKKQMSKLIEIFKEGDPRKWMELLDENARIQIGDTRIRGREHASDWLKKLRDHVDSISIHDMEVDGNHIRVVIEVVIDGRSAVYKFVVHLKNGKVKHVDVSATSKEHENNMSR", "protease stability score": 1.5}
{"sequence": "DDREEARKMLHKADRALNDGDPRSAQNLVDENAQVVYGDKRYSGDQQAADVMVSLRHQYDHLSLEIDRLRVDGNRVHVDATLTAQRNGSTLHSKLNFVFSKKNGRLRVSHLVIG", "protease stability score": 0.183}
{"sequence": "DDREIKELLQLMLDAIRDGNEQSASKMADENARVKVGDKKVHGREQIQELVKELKKNVDHFTVNDIKQQGDKASADAEMDVNGVTVHMEVRVQVHNGHVKHAEMTYRDEDQKRQFHQ", "protease stability score": -0.433}
